Laboratory results taken from patent US20200095340A1.

The binders below were run against biotinylated human DLL3 protein expressed as a human IgG1 fusion protein (human) (UniProt Q9NYJ7) (assay: Octet, biotinylated human DLL3-IgG1 fusion on streptavidin tips, single 50 nM, conditioned medium (relative KD)).
biotinylated human DLL3 protein expressed as a human IgG1 fusion protein (human), sequence (Q9NYJ7 27-492): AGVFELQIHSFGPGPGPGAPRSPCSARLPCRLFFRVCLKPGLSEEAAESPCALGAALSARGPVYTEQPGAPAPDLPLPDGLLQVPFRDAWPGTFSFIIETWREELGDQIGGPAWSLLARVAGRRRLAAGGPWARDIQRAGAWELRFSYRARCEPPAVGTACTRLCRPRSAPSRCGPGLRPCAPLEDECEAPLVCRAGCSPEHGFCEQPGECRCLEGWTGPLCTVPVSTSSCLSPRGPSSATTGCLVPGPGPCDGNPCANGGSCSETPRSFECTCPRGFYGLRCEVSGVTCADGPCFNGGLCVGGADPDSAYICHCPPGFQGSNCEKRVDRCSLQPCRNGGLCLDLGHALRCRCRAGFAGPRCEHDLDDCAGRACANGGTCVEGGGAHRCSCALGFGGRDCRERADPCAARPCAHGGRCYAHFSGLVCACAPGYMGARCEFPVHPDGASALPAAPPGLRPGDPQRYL

Row | Kd | Binder
1 | 10 nM | anti-DLL3 trispecific protein, DLL3 binder 3C06 (protein, part only; not given: CD3 binder and albumin binder, part only) chain, part: EVQLVESGGGLVQPGGSLTLSCAASGTSVSFLSIAWYRQAPGKKRELVAGISADGSTDYIASVKGRFTISRDNAKNSVYLQMNSLRAEDTAVYYCYAYRWRTRYTYWGQGTLVTVSSGGGGSGGGSGGGGSGGGSHHHHHH
2 | 11 nM | anti-DLL3 trispecific protein, DLL3 binder 4B01 (protein, part only; not given: anti-CD3 and anti-albumin domains, part only) chain, part: EVQLVESGGGLVQPGGSLTLSCAASGSSVKFLSMAWYRQAPGKKRELVAGISRDGSTDYIDSVKGRFTISRDNAKNSVYLQMNSLRAEDTAVYYCYAYRWTTRFTYWGQGTLVTVSSGGGGSGGGSGGGGSGGGSHHHHHH
3 | 10 nM | anti-DLL3 trispecific protein, DLL3 binder 3E09 (protein, part only; not given: CD3 binder and albumin binder, part only) chain, part: EVQLVESGGGLVQPGGSLTLSCAASGSSVRFLSMAWYRQAPGKKRELVAGISRDGSTDYIDSVKGRFTISRDNAKNSVYLQMNSLRAEDTAVYYCYAYRWSTRYTYWGQGTLVTVSSGGGGSGGGSGGGGSGGGSHHHHHH
4 | 10 nM | anti-DLL3 trispecific protein, DLL3 binder 4E06 (protein, part only; not given: anti-CD3 fragment and anti-albumin domain, part only) chain, part: EVQLVESGGGLVQPGGSLTLSCAASGTSVSFLSMAWYRQAPGKKRELVAGISADGSTDYIRSVKGRFTISRDNAKNSVYLQMNSLRAEDTAVYYCYAYRWTTRLTYWGQGTLVTVSSGGGGSGGGSGGGGSGGGSHHHHHH
5 | 10 nM | anti-DLL3 trispecific protein, DLL3 binder 4B08 (protein, part only; not given: CD3 fragment and albumin sdAb, part only) chain, part: EVQLVESGGGLVQPGGSLTLSCAASGSSVSFMSMAWYRQAPGKKRELVAGISADGSTDYIASVKGRFTISRDNAKNSVYLQMNSLRAEDTAVYYCYAYRWTTRSTYWGQGTLVTVSSGGGGSGGGSGGGGSGGGSHHHHHH
6 | 10 nM | anti-DLL3 trispecific protein, DLL3 binder 1H02 (protein, part only; not given: anti-CD3 fragment and anti-albumin domain, part only) chain, part: EVQLVESGGGLVQPGGSLTLSCVASGSKSSINAMGWYRRAPGKQRELAAGISSDGSKVYAQSVKGRFTISRDNAKNSVYLQMNSLRAEDTAVYYCYYFRTSSGSSMRYWGQGTLVTVSSGGGGSGGGSGGGGSGGGSHHHHHH
7 | 10 nM | anti-DLL3 trispecific protein, DLL3 binder 2F06 (protein, part only; not given: CD3 fragment and albumin sdAb, part only) chain, part: EVQLVESGGGLVQPGGSLTLSCVASGSTSSINAYGWYRRAPGKQRELVAGISSDGSAVYADSVKGRFTISRDNAKNSVYLQMNSLRAEDTAVYYCYYFRTHSGSSMRYWGQGTLVTVSSGGGGSGGGSGGGGSGGGSHHHHHH
8 | 11 nM | anti-DLL3 trispecific protein, DLL3 binder 1B02 (protein, part only; not given: anti-CD3 fragment and anti-albumin sdAb, part only) chain, part: EVQLVESGGGLVQPGGSLTLSCVASGSTSSINAMGWYRRAPGKQRELVAGISSDGSKIYADSVKGRFTISRDNAKNSVYLQMNSLRAEDTAVYYCYYFRTVSGSSMRYWGQGTLVTVSSGGGGSGGGSGGGGSGGGSHHHHHH
9 | 10 nM | anti-DLL3 trispecific protein, DLL3 binder 1G09 (protein, part only; not given: anti-CD3 fragment and anti-albumin domain, part only) chain, part: EVQLVESGGGLVQPGGSLTLSCVASGSTSSINAMGWYRRAPGKQRELVAGISSDGSKVYADSVKGRFTISRDNAKNSVYLQMNSLRAEDTAVYYCYYFRTVSKSSMRYWGQGTLVTVSSGGGGSGGGSGGGGSGGGSHHHHHH
10 | 10 nM | anti-DLL3 trispecific protein, DLL3 binder 1F04 (protein, part only; not given: anti-CD3 and anti-albumin domains, part only) chain, part: EVQLVESGGGLVQPGGSLTLSCVASGGTSSINAMGWYRRAPGKQRELVAGISSDGSKVYSDSVKGRFTISRDNAKNSVYLQMNSLRAEDTAVYYCYYFRTVSGSSARYWGQGTLVTVSSGGGGSGGGSGGGGSGGGSHHHHHH
11 | 10 nM | anti-DLL3 trispecific protein, DLL3 binder 2A09 (protein, part only; not given: anti-CD3 and anti-albumin domains, part only) chain, part: EVQLVESGGGLVQPGGSLTLSCVASGSTSSRNAMGWYRRAPGKQRELVAGISSNGSKVYSDSVKGRFTISRDNAKNSVYLQMNSLRAEDTAVYYCYYFRTVSGSSMSYWGQGTLVTVSSGGGGSGGGSGGGGSGGGSHHHHHH
12 | 11 nM | anti-DLL3 trispecific protein, DLL3 binder 2G04 (protein, part only; not given: anti-CD3 fragment and anti-albumin sdAb, part only) chain, part: EVQLVESGGGLVQPGGSLTLSCVASGSTSSINAMGWYRRAPGKQRELVAGISSDGSLVYADSVKGRFTISRDNAKNSVYLQMNSLRAEDTAVYYCYYFRILSGSSMRYWGQGTLVTVSSGGGGSGGGSGGGGSGGGSHHHHHH
